Data from patent US20080219970.

T1: Ir-CPI (Ixodes ricinus Contact Phase Inhibitor), recombinant, without its peptide signal
T1 chain: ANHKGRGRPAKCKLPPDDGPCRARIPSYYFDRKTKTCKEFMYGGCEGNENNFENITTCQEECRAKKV

B1: factor XIIa (protein)
chain: IPPWEAPKEHKYKAEEHTVVLTVTGEPCHFPFQYHRQLYHKCTHKGRPGPQPWCATTPNFDQDQRWGYCLEPKKVKDHCSKHSPCQKGGTCVNMPSGPHCLCPQHLTGNHCQKEKCFEPQLLRFFHKNEIWYRTEQAAVARCQCKGPDAHCQRLASQACRTNPCLHGGRCLEVEGHRLCHCPVGYTGAFCDVDTKASCYDGRGLSYRGLARTTLSGAPCQPWASEATYRNVTAEQARNWGLGGHAFCRNPDNDIRPWCFVLNRDRLSWEYCDLAQCQTPTQAAPPTPVSPRLHVPLMPAQPAPPKPQPTTRTPPQSQTPGALPAKREQPPSLTRNGPLSCGQRLRKSLSSMTRVVGGLVALRGAHPYIAALYWGHSFCAGSLIAPCWVLTAAHCLQDRPAPEDLTVVLGQERRNHSCEPCQTLAVRSYRLHEAFSPVSYQHDLALLRLQEDADGSCALLSPYVQPVCLPSGAARPSETTLCQVAGWGHQFEGAEEYASFLQEAQVPFLSLERCSAPDVHGSSILPGMLCAGFLEGGTDACQGDSGGPLVCEDQAAERRLTLQGIISWGSGCGDRNKPGVYTDVAYYLAWIREHTVS
B2: factor Xa (protein)
chain 1: ANSFLEEMKKGHLERECMEETCSYEEAREVFEDSDKTNEFWNKYKDGDQCETSPCQNQGKCKDGLGEYTCTCLEGFEGKNCELFTRKLCSLDNGDCDQFCHEEQNSVVCSCARGYTLADNGKACIPTGPYPCGKQTLER
chain 2: IVGGQECKDGECPWQALLINEENEGFCGGTILSEFYILTAAHCLYQAKRFKVRVGDRNTEQEEGGEAVHEVEVVIKHNRFTKETYDFDIAVLRLKTPITFRMNVAPACLPERDWAESTLMTQKTGIVSGFGRTHEKGRQSTRLKMLEVPYVDRNSCKLSSSFIITQNMFCAGYDTKQEDACQGDSGGPHVTRFKDTYFVTGIVSWGEGCARKGKYGIYTKVTAFLKWIDRSMKTRGLPKAKSHAPEVITSSPLK

Molecular target: T1, Ir-CPI (Ixodes ricinus Contact Phase …)

Protein | activation of factor XI into factor XIa by factor XIIa, reconstituted system with purified factors, chromogenic substrate | activation of prekallikrein into kallikrein by factor XIIa, reconstituted system with purified factors, chromogenic substrate | amidolytic activity (chromogenic substrate S-2302), protease preincubated with Ir-CPI at 1:5 molar ratio | amidolytic activity (chromogenic substrate S-2222), protease preincubated with Ir-CPI at 1:5 molar ratio
B1 | Ir-CPI inhibits ... the activation of factor XI into factor XIa by factor XIIa | Ir-CPI inhibits the activation of prekallikrein into kallikrein by factor XIIa | The results obtained did not show any effect of Ir-CPI protein on the amidolytic activity of these factors | –
B2 | – | – | – | The results obtained did not show any effect of Ir-CPI protein on the amidolytic activity of these factors
